Source: US6120992, “Use of immobilized mismatch binding protein for detection of mutations and polymorphisms, and allele identification in a diseased human” (ValiGene Corporation)

Legend:
MutS [1] = biological target: T1, MutS (Escherichia coli, UniProt P23909 P23909:1-853); assay: immobilized MutS; conditions: tags: immobilized on nitrocellulose, PVDF, nylon or magnetic beads, label: 5' biotin on first strand
T1 sequence: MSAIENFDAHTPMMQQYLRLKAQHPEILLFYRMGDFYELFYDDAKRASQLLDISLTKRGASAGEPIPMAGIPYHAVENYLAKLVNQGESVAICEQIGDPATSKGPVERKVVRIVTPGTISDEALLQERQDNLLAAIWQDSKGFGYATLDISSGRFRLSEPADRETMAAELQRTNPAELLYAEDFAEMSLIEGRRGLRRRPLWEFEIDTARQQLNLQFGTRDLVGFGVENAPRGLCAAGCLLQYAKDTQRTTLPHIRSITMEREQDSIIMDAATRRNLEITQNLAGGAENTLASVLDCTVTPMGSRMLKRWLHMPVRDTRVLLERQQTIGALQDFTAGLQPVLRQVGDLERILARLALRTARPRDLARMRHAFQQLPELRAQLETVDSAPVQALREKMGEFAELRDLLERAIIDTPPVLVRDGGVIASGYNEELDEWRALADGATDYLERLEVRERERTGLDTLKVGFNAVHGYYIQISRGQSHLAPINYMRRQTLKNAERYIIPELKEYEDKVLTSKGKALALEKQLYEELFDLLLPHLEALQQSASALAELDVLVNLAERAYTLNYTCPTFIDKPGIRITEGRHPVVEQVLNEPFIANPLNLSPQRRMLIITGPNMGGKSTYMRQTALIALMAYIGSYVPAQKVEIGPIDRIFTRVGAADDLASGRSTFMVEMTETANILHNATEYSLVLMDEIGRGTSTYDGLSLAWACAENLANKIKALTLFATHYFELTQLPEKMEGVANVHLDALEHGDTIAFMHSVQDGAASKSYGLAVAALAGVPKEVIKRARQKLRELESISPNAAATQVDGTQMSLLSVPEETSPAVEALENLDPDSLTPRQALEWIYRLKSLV
Experimental: (§1) Immobilization of MutS on Solid Supports and Biotin Detection Assay (a) Nitrocellulose A nitrocellulose sheet (0.45 μm, Schleicher and Schull, BA85) was pre-wet by floating in reaction buffer (20 mM Tris HCl, pH 7.6; 5 mM MgCl_2, 0.1 mM DTT, 0.01 mM EDTA). MutS (500 ng/well) in reaction buffer was bound to the nitrocellulose in a 48 well slot blotting apparatus (Hoefer Scientific Instruments) over 3 sheets of blotting paper (Schleicher and Schull GB002). Reaction buffer alone was added to "no MutS" wells. After 20 min. at room temperature, nitrocellulose was blocked with 200 μl/well of 3% horse radish peroxidase (HRP)-free bovine serum albumin (BSA). After 1 hour, excess blocking solution was pulled through with vacuum and DNA (1 ng and 10 ng) was added in 20 μl reaction buffer containing 3% BSA. After 30 min. at room temperature, wells were washed 5 times with 100 μl reaction buffer. The wash fluids were decanted rather than pulled through with vacuum.
(§2) The presence of biotin-labeled DNA bound on the nitrocellulose sheet was detected by visualizing the binding of streptavidin to biotin. 100 μl streptavidin-conjugated HRP (0.05 μg/ml in reaction buffer+BSA) was added to each well. After 20 min. at room temperature, any remaining solution was decanted and the wells washed 5 times with 100 μl reaction buffer as above.

MutS [2] = biological target: T1, MutS; assay: immobilized MutS, 1-10 ng; detected equally to G//T; conditions: tags: immobilized on nitrocellulose, PVDF, nylon or magnetic beads; label: 5' biotin on first strand; T//G mismatch
Experimental: as §1, §2

MutS [3] = biological target: T1, MutS; assay: immobilized MutS; conditions: tags: immobilized on nitrocellulose, PVDF, nylon or magnetic beads, label: biotin
Experimental: as §1
DNA was prepared as described in the Examples above. 500 ng *E. coli* MutS was bound to nitrocellulose as described above and the experiment carried out as in the previous Examples. Self-annealed single stranded triplet repeat sequences of CGG and CTG formed double-stranded mismatch-containing DNA duplexes which were recognized by immobilized MutS.

MutS [4] = biological target: T1, MutS; assay: immobilized MutS; strong signal; conditions: tags: immobilized on nitrocellulose, PVDF, nylon or magnetic beads; label: 5' biotin on first strand; G//G mismatch
Experimental: as §1, §2

MutS [5] = biological target: T1, MutS; assay: immobilized MutS; C//T less well detected than T//C; conditions: tags: immobilized on nitrocellulose, PVDF, nylon or magnetic beads; label: 5' biotin on first strand; C//T mismatch
Experimental: as §1, §2

MutS [6] = biological target: T1, MutS; assay: filter; soluble MutS, 1 or 10 ng DNA; 1.8-fold at 0.1 ng; conditions: tags: immobilized on nitrocellulose, PVDF, nylon or magnetic beads; label: 5' biotin on first strand; G//T mismatch
Experimental: The binding of ^32P-labeled heteroduplexes to MutS in solution was tested in a standard filter binding assay essentially as described by Jiricny, J. et al., Nucl. Acids Res. 16:7843–7853 (1988). The oligonucleotides were labeled as above and annealed with a 10-fold excess of unlabeled "complementary" oligonucleotides to yield a homoduplex and a heteroduplex containing a single G//T mismatch. For this assay, 500 ng of MutS in reaction buffer (20 µl) was incubated for 30 minutes at room temperature with the two types of duplexes. The mixture was spotted onto pre-wet nitrocellulose filters, which were then washed 5 times with 2 ml reaction buffer by vacuum filtration and dried at 80° C. for 15 minutes. Each filter was placed in 3 ml scintillation fluid and the radioactivity determined by scintillation counting. Background cpm (no MutS) were subtracted from the cpm bound by MutS. Means of duplicate or triplicate determinations are shown below.

[7] = self-annealed duplex with mismatches

B1: G//A mismatch 30mer (dsDNA)
DNA 1: GCACCTGACTCCTGGGGAGAAGTCTGCCGT
DNA 2: ACGGCAGACTTCTCCACAGGAGTCAGGTGC
- binding result (MutS [1]; G//A mismatch): binds

B2: A//G mismatch 30mer (dsDNA)
DNA 1: GCACCTGACTCCTGAGGAGAAGTCTGCCGT
DNA 2: ACGGCAGACTTCTCCGCAGGAGTCAGGTGC
- binding result (MutS [1]; A//G mismatch): binds

B3: A//A mismatch 30mer (dsDNA)
DNA 1: GCACCTGACTCCTGAGGAGAAGTCTGCCGT
DNA 2: ACGGCAGACTTCTCCACAGGAGTCAGGTGC
- binding result (MutS [1]; A//A mismatch): binds

B4: T//G mismatch 30mer (dsDNA)
DNA 1: GCACCTGACTCCTGTGGAGAAGTCTGCCGT
DNA 2: ACGGCAGACTTCTCCGCAGGAGTCAGGTGC
- binding result (MutS [2]): binds

Binder: CAGCAGCAGCAGCAGCAGCAGCAGCAGCAG (ssDNA) [(CAG)10]
- binding result (MutS [3]): no binding

Binder: CGGCGGCGGCGGCGGCGGCGGCGGCGGCGG (structured_DNA) [(CGG)10]
- binding result (MutS [3]; [7]): binds

B5: T//T mismatch 30mer (dsDNA)
DNA 1: GCACCTGACTCCTGTGGAGAAGTCTGCCGT
DNA 2: ACGGCAGACTTCTCCTCAGGAGTCAGGTGC
- binding result (MutS [1]; T//T mismatch): binds

B6: A//C mismatch 30mer (dsDNA)
DNA 1: GCACCTGACTCCTGAGGAGAAGTCTGCCGT
DNA 2: ACGGCAGACTTCTCCCCAGGAGTCAGGTGC
- binding result (MutS [1]; A//C mismatch): binds

B7: G//G mismatch 30mer (dsDNA)
DNA 1: GCACCTGACTCCTGGGGAGAAGTCTGCCGT
DNA 2: ACGGCAGACTTCTCCGCAGGAGTCAGGTGC
- binding result (MutS [4]): binds

B8: C//T mismatch 30mer (dsDNA)
DNA 1: GCACCTGACTCCTGCGGAGAAGTCTGCCGT
DNA 2: ACGGCAGACTTCTCCTCAGGAGTCAGGTGC
- binding result (MutS [5]): binds

B9: G//T mismatch 30mer (dsDNA)
DNA 1: GCACCTGACTCCTGGGGAGAAGTCTGCCGT
DNA 2: ACGGCAGACTTCTCCTCAGGAGTCAGGTGC
- binding signal (MutS [6]): 5.2 fold over G:C homoduplex

Binder: CCGCCGCCGCCGCCGCCGCCGCCGCCGCCG (ssDNA) [(CCG)10]
- binding result (MutS [3]): no binding

Binder: CTGCTGCTGCTGCTGCTGCTGCTGCTGCTG (structured_DNA) [(CTG)10]
- binding result (MutS [3]; [7]): binds
